Patent publication US20250002588A1 (DIAGONAL THERAPEUTICS, published 2025)

Biological target: ALK-1/BMPR-2 receptor pair of the PathHunter U2Os dimerization cells (DiscoverX 93-0962C3) (UniProt P37023 22-503; Q13873 27-1038)
Assay: cell-based or functional assay

ALK-1/BMPR-2 receptor pair of the PathHunter U2Os dimerization cells (DiscoverX 93-0962C3), sequence (P37023 22-503, chain 1 of 2): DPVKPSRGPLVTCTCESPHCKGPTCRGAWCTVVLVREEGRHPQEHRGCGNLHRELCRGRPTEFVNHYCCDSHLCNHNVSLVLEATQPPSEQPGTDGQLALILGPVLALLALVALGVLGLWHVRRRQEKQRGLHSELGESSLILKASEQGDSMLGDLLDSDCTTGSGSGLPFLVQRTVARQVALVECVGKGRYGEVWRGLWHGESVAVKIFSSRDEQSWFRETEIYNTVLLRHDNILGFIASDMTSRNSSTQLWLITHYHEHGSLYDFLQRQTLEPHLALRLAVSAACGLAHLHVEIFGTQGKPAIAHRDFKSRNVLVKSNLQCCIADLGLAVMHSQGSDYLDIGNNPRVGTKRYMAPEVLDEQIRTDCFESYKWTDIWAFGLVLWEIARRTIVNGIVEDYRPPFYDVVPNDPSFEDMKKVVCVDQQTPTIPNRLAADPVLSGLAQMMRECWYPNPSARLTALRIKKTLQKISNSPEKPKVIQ
ALK-1/BMPR-2 receptor pair of the PathHunter U2Os dimerization cells (DiscoverX 93-0962C3), sequence (Q13873 27-1038, chain 2 of 2): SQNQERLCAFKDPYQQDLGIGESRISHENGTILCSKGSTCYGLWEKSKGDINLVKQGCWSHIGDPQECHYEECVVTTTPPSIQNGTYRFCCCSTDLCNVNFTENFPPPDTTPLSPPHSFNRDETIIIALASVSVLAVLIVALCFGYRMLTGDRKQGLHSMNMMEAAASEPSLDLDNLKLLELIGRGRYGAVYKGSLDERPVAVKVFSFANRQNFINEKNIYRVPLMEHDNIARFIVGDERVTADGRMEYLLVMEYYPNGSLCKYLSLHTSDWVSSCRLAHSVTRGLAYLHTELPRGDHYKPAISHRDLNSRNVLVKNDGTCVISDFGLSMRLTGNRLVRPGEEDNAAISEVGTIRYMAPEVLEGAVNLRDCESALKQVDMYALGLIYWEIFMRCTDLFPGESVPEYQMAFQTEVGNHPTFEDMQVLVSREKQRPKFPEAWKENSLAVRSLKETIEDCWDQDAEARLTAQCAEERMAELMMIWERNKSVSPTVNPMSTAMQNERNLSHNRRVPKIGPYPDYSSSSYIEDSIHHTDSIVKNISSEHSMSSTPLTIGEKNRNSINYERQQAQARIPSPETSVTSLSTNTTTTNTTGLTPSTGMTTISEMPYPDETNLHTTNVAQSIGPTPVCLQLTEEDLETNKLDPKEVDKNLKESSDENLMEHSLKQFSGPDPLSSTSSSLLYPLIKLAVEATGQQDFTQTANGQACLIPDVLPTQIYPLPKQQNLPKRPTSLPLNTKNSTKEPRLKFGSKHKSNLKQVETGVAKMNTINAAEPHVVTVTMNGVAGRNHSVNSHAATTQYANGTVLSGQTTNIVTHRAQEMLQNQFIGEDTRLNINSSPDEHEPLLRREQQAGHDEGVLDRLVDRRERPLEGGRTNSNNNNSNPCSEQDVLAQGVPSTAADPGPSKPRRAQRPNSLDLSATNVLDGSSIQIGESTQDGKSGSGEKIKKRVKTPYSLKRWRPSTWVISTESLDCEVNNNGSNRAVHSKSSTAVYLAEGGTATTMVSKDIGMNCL

Binder | % Emax BMP9
DGL945 (bispecific antibody, human IgG1, lambda) heavy: EVQLLESGGGLVQPGGSLRLSCAASGFTFSDYYMTWIRQAPGKGLEWVSSISGGSTYYADSRKGRFTISRDNSENTLYLQMNSLRAEDTAVYYCARDFGVAGWFGQYGMDVWGQGTLVTVSSPLAPEVQLLESGGGLVQPGGSLRLSCAASGFTFSSYAMSWVRQAPGKGLEWVANINQDGSEKNYVDSMRGRFTISRDNSKNTLYLQMNSLRAEDTAVYYCAREFDYWGQGTLVTVSSASTKGPSVFPLAPSSKSTSGGTAALGCLVKDYFPEPVTVSWNSGALTSGVHTFPAVLQSSGLYSLSSVVTVPSSSLGTQTYICNVNHKPSNTKVDKKVEPKSCDKTHTCPPCPAPEAAGAPSVFLFPPKPKDTLYITREPEVTCVVVDVSHEDPEVKFNWYVDGVEVHNAKTKPREEQYNSTYRVVSVLTVLHQDWLNGKEYKCKVSNKALPAPIEKTISKAKGQPREPQVYTLPPSRDELTKNQVSLTCLVKGFYPSDIAVEWESNGQPENNYKTTPPVLDSDGSFFLYSKLTVDKSRWQQGNVFSCSVMHEALHNHYTQKSLSLSPG light: not shown | 78%
DGL947 (bispecific antibody, human IgG1, lambda) heavy: EVQLLESGGGLVQPGGSLRLSCAASGFTFSDYYMNWIRQAPGKGLEWVSSISGGSTYYADSVKGRFTISRDNSENTLYLQMNSLRAEDTAVYYCARDFGVAGWFGQFGMDVWGQGTLVTVSSPLAPEVQLLESGGGLVQPGGSLRLSCAASGFTFSSYWMSWVRQAPGKGLEWVANINQDGSEKYYVDSMRGRFTISRDNSKNTLYLQMNSLRAEDTAVYYCAREYDYWGQGTLVTVSSASTKGPSVFPLAPSSKSTSGGTAALGCLVKDYFPEPVTVSWNSGALTSGVHTFPAVLQSSGLYSLSSVVTVPSSSLGTQTYICNVNHKPSNTKVDKKVEPKSCDKTHTCPPCPAPEAAGAPSVFLFPPKPKDTLYITREPEVTCVVVDVSHEDPEVKFNWYVDGVEVHNAKTKPREEQYNSTYRVVSVLTVLHQDWLNGKEYKCKVSNKALPAPIEKTISKAKGQPREPQVYTLPPSRDELTKNQVSLTCLVKGFYPSDIAVEWESNGQPENNYKTTPPVLDSDGSFFLYSKLTVDKSRWQQGNVFSCSVMHEALHNHYTQKSLSLSPG light: not shown | 47%
DGL949 (bispecific antibody, human IgG1, lambda) heavy: EVQLLESGGGLVQPGGSLRLSCAASGFTFSDYYMNWIRQAPGKGLEWVSSISGGSTYYADSVKGRFTISRDNSENTLYLQMNSLRAEDTAVYYCARDFGVAGWFGYYGMDVWGQGTLVTVSSPLAPEVQLLESGGGLVQPGGSLRLSCAASGFTFSSYWMSWVRQAPGKGLEWVANIKQDGSEKNYVDSMRGRFTISRDNSKNTLYLQMNSLRAEDTAVYYCAREFDFWGQGTLVTVSSASTKGPSVFPLAPSSKSTSGGTAALGCLVKDYFPEPVTVSWNSGALTSGVHTFPAVLQSSGLYSLSSVVTVPSSSLGTQTYICNVNHKPSNTKVDKKVEPKSCDKTHTCPPCPAPEAAGAPSVFLFPPKPKDTLYITREPEVTCVVVDVSHEDPEVKFNWYVDGVEVHNAKTKPREEQYNSTYRVVSVLTVLHQDWLNGKEYKCKVSNKALPAPIEKTISKAKGQPREPQVYTLPPSRDELTKNQVSLTCLVKGFYPSDIAVEWESNGQPENNYKTTPPVLDSDGSFFLYSKLTVDKSRWQQGNVFSCSVMHEALHNHYTQKSLSLSPG light: not shown | 42%
DGL1146 (bispecific antibody, human IgG1, lambda) heavy: EVQLLESGGGLVQPGGSLRLSCAASGFTFSDYYMTWIRQAPGKGLEWVSSISGGSTYYADSRKGRFTISRDNSENTLYLQMNSLRAEDTAVYYCARDFGVAGWFGQYGMDVWGQGTLVTVSSPLAPEVQLLESGGGLVQPGGSLRLSCAASGFTFSSYAMSWVRQAPGKGLEWVANINQDGSEKNYVDSMRGRFTISRDNSKNTLYLQMNSLRAEDTAVYYCAREFDYWGQGTLVTVSSASTKGPSVFPLAPSSKSTSGGTAALGCLVKDYFPEPVTVSWNSGALTSGVHTFPAVLQSSGLYSLSSVVTVPSSSLGTQTYICNVNHKPSNTKVDKKVEPKSCDKTHTCPPCPAPEAAGAPSVFLFPPKPKDTLMISRTPEVTCVVVDVSHEDPEVKFNWYVDGVEVHNAKTKPREEQYNSTYRVVSVLTVLHQDWLNGKEYKCKVSNKALPAPIEKTISKAKGQPREPQVYTLPPSRDELTKNQVSLTCLVKGFYPSDIAVEWESNGQPENNYKTTPPVLDSDGSFFLYSKLTVDKSRWQQGNVFSCSVLHEALHSHYTQKSLSLSPG light: not shown | 78%
